± gives the uncertainty stated by the source.
B1: LIM and senescent cell antigen-like-containing domain protein 2, residues 13 to 71; numbered along this chain, Q7Z4I7 (parent)
chain: AVCQRCQARFSPAERIVNSNGELYHEHCFVCAQCFRPFPEGLFYEFEGRKYCEHDFQML

Variants of: B1
Assay: abundance fitness (aPCA) (normalised: wild type 0, dead -1); higher = more abundant; growth selection in yeast, the domain comes from the species named
Details: Homo sapiens

| Variant | abundance fitness |
| --- | --- |
| C3L | -0.705 ± 0.088 |
| C3W | -0.42 ± 0.13 |
| C3R | -1.21 ± 0.18 |
| C3H | -1 ± 0.23 |
| C3A | -0.682 ± 0.12 |
| C3N | -0.687 ± 0.13 |
| C3M | -0.843 ± 0.14 |
| C3S | -0.832 ± 0.11 |
| C3D | -0.894 ± 0.24 |
| C3Q | -1.33 ± 0.32 |
| C3G | -0.499 ± 0.083 |
| C3Y | -0.887 ± 0.18 |
| C3E | -0.468 ± 0.17 |
| C3F | -1.11 ± 0.25 |
| C3I | -1.25 ± 0.35 |
| C3K | -1.08 ± 0.23 |
| C3T | -1.22 ± 0.26 |
| R5S | 0.209 ± 0.062 |
| R5Q | 0.066 ± 0.073 |
| R5I | 0.078 ± 0.14 |
| R5H | 0.069 ± 0.15 |
| R5C | -0.379 ± 0.2 |
| R5K | 0.052 ± 0.082 |
| R5G | 0.231 ± 0.07 |

| Variant | abundance fitness |
| --- | --- |
| R5A | 0.186 ± 0.079 |
| R5M | 0.129 ± 0.077 |
| R5E | 0.037 ± 0.077 |
| R5Y | 0.29 ± 0.11 |
| R5W | -0.184 ± 0.081 |
| R5F | -0.347 ± 0.15 |
| R5D | 0.104 ± 0.12 |
| R5P | -0.625 ± 0.15 |
| R5V | 0.119 ± 0.061 |
| R5N | -0.081 ± 0.13 |
| V2I | 0.019 ± 0.1 |
| V2C | -0.303 ± 0.14 |
| V2L | -0.144 ± 0.062 |
| V2W | -0.546 ± 0.24 |
| V2D | -0.128 ± 0.16 |
| V2E | -0.081 ± 0.093 |
| V2A | -0.53 ± 0.13 |
| V2P | -0.274 ± 0.093 |
| V2R | -0.002 ± 0.082 |
| V2N | -0.139 ± 0.13 |
| V2M | 0.093 ± 0.088 |
| V2G | 0.129 ± 0.11 |
| V2Y | -0.097 ± 0.11 |
| V2S | -0.445 ± 0.11 |

| Variant | abundance fitness |
| --- | --- |
| V2H | -0.238 ± 0.17 |
| V2K | 0.018 ± 0.14 |
| V2T | 0.011 ± 0.098 |
| V2F | -0.324 ± 0.11 |
| R9Y | -0.292 ± 0.1 |
| R9C | -0.164 ± 0.11 |
| R9P | 0.051 ± 0.068 |
| R9T | -0.019 ± 0.068 |
| R9F | -0.408 ± 0.12 |
| R9W | -0.034 ± 0.079 |
| R9Q | 0.039 ± 0.089 |
| R9D | -0.019 ± 0.11 |
| R9I | -0.039 ± 0.14 |
| R9G | 0.01 ± 0.07 |
| R9S | 0.212 ± 0.066 |
| R9M | -0.075 ± 0.074 |
| R9H | -0.047 ± 0.096 |
| R9N | -0.135 ± 0.11 |
| R9E | -0.084 ± 0.089 |
| R9L | -0.122 ± 0.052 |
| R9V | -0.019 ± 0.063 |
| R9A | -0.104 ± 0.076 |
| A1P | -0.739 ± 0.32 |
| A1L | -0.149 ± 0.15 |

| Variant | abundance fitness |
| --- | --- |
| A1N | -0.481 ± 0.41 |
| A1D | -0.256 ± 0.21 |
| A1T | 0.176 ± 0.16 |
| A1G | -0.135 ± 0.081 |
| A1Q | -0.313 ± 0.18 |
| A1R | -0.573 ± 0.22 |
| A1V | -0.058 ± 0.069 |
| A1K | 0.066 ± 0.15 |
| A1E | 0.161 ± 0.11 |
| A1W | -0.327 ± 0.47 |
| A1S | 0.002 ± 0.12 |
| Q7M | 0.025 ± 0.053 |
| Q7L | 0.068 ± 0.04 |
| Q7D | -0.54 ± 0.11 |
| Q7N | -0.849 ± 0.12 |
| Q7K | -0.832 ± 0.12 |
| Q7W | 0.007 ± 0.052 |
| Q7F | -0.083 ± 0.064 |
| Q7G | 0.05 ± 0.053 |
| Q7I | -0.231 ± 0.061 |
| Q7C | -0.194 ± 0.062 |
| Q7P | -0.802 ± 0.078 |
| Q7Y | -0.11 ± 0.072 |
| Q7A | 0.057 ± 0.061 |

| Variant | abundance fitness |
| --- | --- |
| Q7E | -0.668 ± 0.082 |
| Q7V | -0.121 ± 0.05 |
| Q7S | -0.067 ± 0.042 |
| Q7H | 0.003 ± 0.068 |
| Q7T | 0.156 ± 0.051 |
| A8T | 0.015 ± 0.054 |
| A8D | -0.119 ± 0.11 |
| A8I | 0.073 ± 0.073 |
| A8N | -0.03 ± 0.08 |
| A8L | 0.064 ± 0.038 |
| A8E | 0.327 ± 0.077 |
| A8S | 0.076 ± 0.045 |
| A8H | -0.041 ± 0.1 |
| A8C | 0.03 ± 0.067 |
| A8M | 0.151 ± 0.062 |
| A8G | 0.184 ± 0.061 |
| A8Q | 0.147 ± 0.061 |
| A8K | 0.166 ± 0.053 |
| A8V | 0.071 ± 0.061 |
| A8F | -0.039 ± 0.065 |
| A8R | 0.181 ± 0.041 |
| A8W | 0.109 ± 0.051 |
| A8P | -0.797 ± 0.091 |
| C6D | -1.03 ± 0.29 |

| Variant | abundance fitness |
| --- | --- |
| C6I | -1.16 ± 0.36 |
| C6A | -0.84 ± 0.18 |
| C6Y | -0.732 ± 0.16 |
| C6F | -0.677 ± 0.12 |
| C6E | -0.968 ± 0.24 |
| C6G | -0.757 ± 0.1 |
| C6H | -1.08 ± 0.31 |
| C6N | -0.679 ± 0.15 |
| C6W | -0.769 ± 0.095 |
| C6M | -0.34 ± 0.098 |
| C6P | -0.896 ± 0.14 |
| C6K | -0.469 ± 0.11 |
| C6T | -0.935 ± 0.16 |
| C6R | -0.544 ± 0.065 |
| C6Q | -0.878 ± 0.16 |
| C6S | -0.804 ± 0.084 |
| F10A | -0.389 ± 0.1 |
| F10R | -0.601 ± 0.081 |
| F10H | -0.343 ± 0.16 |
| F10S | -0.475 ± 0.07 |
| F10D | -1.05 ± 0.24 |
| F10K | -0.548 ± 0.1 |
| F10I | 0.022 ± 0.1 |
| F10P | -0.304 ± 0.093 |

| Variant | abundance fitness |
| --- | --- |
| F10C | -0.139 ± 0.086 |
| F10N | -0.607 ± 0.19 |
| F10L | 0.05 ± 0.049 |
| F10M | -0.002 ± 0.084 |
| F10Q | -0.707 ± 0.1 |
| Q4M | 0.209 ± 0.1 |
| Q4I | -0.216 ± 0.18 |
| Q4D | 0.357 ± 0.11 |
| Q4C | 0.065 ± 0.11 |
| Q4G | -0.127 ± 0.071 |
| Q4E | -0.133 ± 0.082 |
| Q4L | 0.184 ± 0.059 |
| Q4P | -0.145 ± 0.11 |
| Q4N | 0.679 ± 0.16 |
| Q4S | 0.029 ± 0.064 |
| Q4V | -0.228 ± 0.068 |
| Q4T | 0.051 ± 0.078 |
| Q4F | -0.161 ± 0.17 |
| Q4Y | 0.086 ± 0.11 |
| Q4R | -0.073 ± 0.064 |
| Q4W | -0.528 ± 0.1 |
| Q4K | -0.007 ± 0.091 |
| Q4H | 0.035 ± 0.13 |
